For this data set, the system named is MS2 coat protein. Nature of the data set: apparent KD of MS2 coat protein; designed switch direction (-1 OFF switch, 1 ON switch): -1; higher = weaker reporter binding. The procedure, abridged: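 Transcription of designed RNA switches on Illumina chips was done by stalled E. coli RNA polymerase. SNAP-549-labelled MS2 coat protein was then titrated in doubling steps from 0.7 or 1.5 nM to 3 µM, with steps of 0.8–1.5 h at the lowest and 10–20 min at the highest concentration. The per-design median over clusters of curve-fitted normalised fluorescence is reported as apparent KD.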

Setting [1] is: input ligand: microRNA oligo, concentration not stated.
Where [2] appears, read: Eterna round: R95, input ligand: FMN 200 uM.
Where [3] appears, read: Eterna round: R95, input ligand: microRNA oligo, concentration not stated.
The mark [4] stands for this setting: Eterna round: R95, input ligand: none.

Take “GUAGAGUGAGGAUAUACGAGAUCGAUAGAUCAACGAUCCAAACAUGAGGAUCACCCAUGUAGAAGGCACUCUAC [Mat - Exclusion 2 - Eli Mod - D8] (Eterna round: R97, puzzle: Exclusion 2)”: the “apparent KD of MS2 coat protein” value stood at 224 nM (input ligand: FMN 200 uM) and 23.1 nM (input ligand: none).

Consider “GUAGAGUGAGGAUAUACGAGAUCGAUAGAUCGGCGAUCCAUACAUGAGGAUCACCCAUGUAGAAGGCACUCUAC [Mat - Exclusion 2 - Eli Mod - D2] (Eterna round: R97, puzzle: Exclusion 2)”, for which the “apparent KD of MS2 coat protein” value worked out at 625 nM (input ligand: FMN 200 uM) and 29.3 nM (input ligand: none).

Take “GUAUAACAUGUAGGAUAUGCGUGGCGAAGCUAUGCAGAAGGACAUGAGGAUCACCCAUGUUUUAGCGUCUGCGUACAGAUGCAA [JL ENG1 1.39] (Eterna round: R96, puzzle: Exclusion NG 1)”: the “apparent KD of MS2 coat protein” value is 143 nM (input ligand: FMN 200 uM), 20.1 nM under setting [1] and 26.3 nM (input ligand: none).

As for “GUAUAACUACACGGGCUCAACAUGAGGAUCACCCAUGUCAUAUACGCAAGCUUUUUGCUUGUCUUACCUGUCCGUGA [Ariedbi] (puzzle: Sensor v3, turn-off variant 1)”, the “apparent KD of MS2 coat protein” value reads like this: under setting [2], 11.5 nM; under setting [3], 10.4 nM; under setting [4], 10.1 nM.

Turning to “GUCACAUGGACAUAGGAUCACAUGAGGAUCACCCAUGUGACUAACAAGCUUUUUGCUCGUCUUAUGUCCAUGUGAAU [Stov1/15-A3] (Eterna round: R97, puzzle: Sensor, turn-off variant 1)”, the “apparent KD of MS2 coat protein” value reads like this: (input ligand: FMN 200 uM) 13 nM; (input ligand: none) 12.9 nM.

Take “GUCACAUGGACAUAGGAUCACAUGAGGAUCACCCAUGUGACUAACAAGCUUUUUGCUCGUCUUAUGUCUAUGUGAAG [Stov1/16-A3] (Eterna round: R97, puzzle: Sensor, turn-off variant 1)”: the “apparent KD of MS2 coat protein” value (input ligand: FMN 200 uM) came to 14.4 nM and the “apparent KD of MS2 coat protein” value (input ligand: none) turned out to be 12.4 nM.

Regarding “GUCACAUGGGUGUAGAAUCACAUGAGGAUCACCCAUGUGACUAACAAGCUUUUUGCUCGUCUUAUGUCUAUGUGAAG [Stov1/17-A3] (Eterna round: R97, puzzle: Sensor, turn-off variant 1)”, the “apparent KD of MS2 coat protein” value reads like this: (input ligand: FMN 200 uM) 58.7 nM; (input ligand: none) 32.1 nM.

As for “GUCACCUCGGUGACAAAGCACAUGAGGAUCACCCAUGUAUGUGCUUGGAAACAAGCAUUUUGUUCGUCUUAUAAGAA [same principle] (Eterna round: R96, puzzle: Sensor v2, turn-off variant)”, the “apparent KD of MS2 coat protein” value was 22.7 nM (input ligand: FMN 200 uM), 95.4 nM under setting [1] and 21.6 nM (input ligand: none).

For the sequence “GUCACGUAAGGAUAUCAUUAGUUGGACAUGAGGAUCACCCAUGUGAGACUAACUCCGGCGUGAGAAGGUGCGUUAA [Arorza] (puzzle: Exclusion 5)”, the “apparent KD of MS2 coat protein” value under setting [3] is 12 nM.

In the case of “GUCACUAGAGGAUAUACAAUGGUAUAUGAUCCUAGUGACAAACAUGAGGAUCACCCAUGUAGAAGGCUAGUAAA [Exclusion 2 - 2] (puzzle: Exclusion 2)”, the “apparent KD of MS2 coat protein” value reads like this: under setting [2], 24.5 nM; under setting [3], 28.3 nM; under setting [4], 28 nM.

For “GUCAGCUCGUCAGGAUAUACAUGAGGAUCACCCAUGUGGUCAUUAGCAGCUUCGGCUGCAUUAAUGUAGAAGGGACGAGCUGAC [ENG2/8-B1] (Eterna round: R96, puzzle: Exclusion NG 2)”, the “apparent KD of MS2 coat protein” value (input ligand: FMN 200 uM) stood at 1120 nM, the “apparent KD of MS2 coat protein” value under setting [1] came out at 357 nM and the “apparent KD of MS2 coat protein” value (input ligand: none) stood at 591 nM.

Consider “GUCAGCUCGUCAGGAUAUACAUGAUAGAUCGAUUAAUUAAUUAAUUUAACAUGAGGAUCACCCAUGUAGAAGGGACGAGCUGAU [ENG2/1-B2] (Eterna round: R96, puzzle: Exclusion NG 2)”, for which, under setting [1], the “apparent KD of MS2 coat protein” value was 59.2 nM.

Take “GUCAGCUCGUCAGGAUAUAUAUAUACAUGAGGAUCACCCAUGUUAGAUCAGCUUCGGCAGUAUAUAUAGAAGGGACGAGCUGAC [ENG2/15-B1] (Eterna round: R96, puzzle: Exclusion NG 2)”: the “apparent KD of MS2 coat protein” value by setting is: (input ligand: FMN 200 uM) 153 nM; under setting [1], 59 nM; (input ligand: none) 72.5 nM.

Turning to “GUCAGCUCGUGAGGAUAUACAUCACUGCUUCGGCAGUGUAUUAAGAUCACAUGAGGAUCACCCAUGUAGAAGGCACGAGCUGAC [ENG2/2-A1] (Eterna round: R96, puzzle: Exclusion NG 2)”, the “apparent KD of MS2 coat protein” value stood at 309 nM (input ligand: FMN 200 uM), 34 nM under setting [1] and 29.6 nM (input ligand: none).

In the case of “GUCAGCUCGUGAGGAUAUACAUGCGUGCUUCGGCACGUAUGAUAGAUCACAUGAGGAUCACCCAUGUAGAAGGUACGAGCUGAU [ENG2/4-C2] (Eterna round: R96, puzzle: Exclusion NG 2)”, the “apparent KD of MS2 coat protein” value reads like this: (input ligand: FMN 200 uM) 14.9 nM; under setting [1], 10.8 nM; (input ligand: none) 15.2 nM.

In the case of “GUCAGCUCGUGAGGAUAUGCACAUGAGGAUCACCCAUGUAAGAUCAAGCUGCUUCGGCAGCAAGUGCAGAAGGUACGAGCUGAC [ENG2/9-C1] (Eterna round: R96, puzzle: Exclusion NG 2)”, the “apparent KD of MS2 coat protein” value by setting is: (input ligand: FMN 200 uM) 200 nM; under setting [1], 207 nM; (input ligand: none) 297 nM.

For “GUCAGGAAUGUAGGAUAUCUGCACGUGUAGUGCAGAGAAGGACAUGAGGAUCACCCAUGUAUAGUAGCUUCGGCUACACCUGAC [ENG1-A3] (Eterna round: R96, puzzle: Exclusion NG 1)”, the “apparent KD of MS2 coat protein” value reads like this: (input ligand: FMN 200 uM) 18 nM; under setting [1], 9.93 nM; (input ligand: none) 18.1 nM.

Take “GUCAUACAUGAGGAUCACCCAUGUAAGGAUAUGCUAGCGGUCGGAAGACUGACUGCUAGCAGAAGGUACAUGAU [Mat - Mod of JL D80] (puzzle: Exclusion 1)”: the “apparent KD of MS2 coat protein” value under setting [3] worked out at 61.5 nM.

“GUCAUCAAACAUGGGAUAAACAUGAGGAUCACCCAUGUUUACAAGUUUUUUGCUCGUCUUAUAAUAAGUUUGAUGAC [Antenna 8 - Jieux - Sensor, turn-off variant 1] (Eterna round: R97, puzzle: Sensor, turn-off variant 1)”: the “apparent KD of MS2 coat protein” value is, setting by setting: (input ligand: FMN 200 uM) 14 nM; (input ligand: none) 15 nM.

With “GUCCGACAUGAGGAUCACCCAUGUGAGGAUAUGCGAUUAGCUGCUAGGUAGUUAGUAUGUAGAAGGCGCAUGAA [EX1 #76] (Eterna round: R97, puzzle: Exclusion 1)”, the “apparent KD of MS2 coat protein” value (input ligand: FMN 200 uM) was 21.9 nM and the “apparent KD of MS2 coat protein” value (input ligand: none) turned out to be 24.5 nM.

As for “GUCGAGUGAGGAUAUGGUGAGUAGUGCCAGAGCGCUGCUCACCAGAAGGCACAUGAGGAUCACCCAUGUAUAGC [Mat - Exclusion 4 - Mod of JL - D13] (puzzle: Exclusion 4)”, the “apparent KD of MS2 coat protein” value under setting [3] was found to be 15.2 nM.

Consider “GUCGUGACCAAGGAUAUAGCUAGGGAAGGAAAGUUAGAAGGUGGUACAUGAGGAUCACCCAUGUAGUCCACAAA [Dixeatleve] (puzzle: Exclusion 6)”, for which the “apparent KD of MS2 coat protein” value by setting is: under setting [2], 13.1 nM; under setting [3], 13 nM; under setting [4], 12.9 nM.

With “GUCGUGCGGCUUUGCUGUACGAGUACAUGAGGAUCACCCAUGUAGGAUAUGGCACGCUUUGCGUGCCAGAAGGGCGUGCGUUGG [Excl-NG3-LRO10] (Eterna round: R96, puzzle: Exclusion NG 3)”, the “apparent KD of MS2 coat protein” value is, setting by setting: (input ligand: FMN 200 uM) 35.1 nM; under setting [1], 21.5 nM; (input ligand: none) 28.4 nM.

As for “GUCGUGCGGCUUUGCUGUGCGGGUACAUGAGGAUCACCCAUGUAGGAUAUGGUACGCUUUGCGUGCCAGAAGGGCGUGCGUUGG [salish99_ExNG3_r04_008] (Eterna round: R96, puzzle: Exclusion NG 3)”, the “apparent KD of MS2 coat protein” value reads like this: (input ligand: FMN 200 uM) 38.4 nM; under setting [1], 26.3 nM; (input ligand: none) 36.6 nM.

As for “GUCGUGUUAGGAUAUGGCGGCGGCGGCGAAAGUUGUUGUUGUUAGAAGGAACAUGAGGAUCACCCAUGUAUGAC [-26 -25.5 kcal, A 24%] (Eterna round: R97, puzzle: Exclusion 4)”, the “apparent KD of MS2 coat protein” value reads like this: (input ligand: FMN 200 uM) 104 nM; (input ligand: none) 35.3 nM.

For the sequence “GUCUACCAGCUAGGAUAUGCAGUACAGUAAAAUGUAGAAGGAGCACGAUCCAGACAUGAGGAUCACCCAUGUGGGCGGUAGGCA [Vebiena] (Eterna round: R96, puzzle: Exclusion NG 1)”, the “apparent KD of MS2 coat protein” value is 19.8 nM (input ligand: FMN 200 uM), 9.52 nM under setting [1] and 17.3 nM (input ligand: none).

Take “GUCUUCAUGACAUGAGGAUCACCCAUGUGUUAUUUGUUAACUAAGGAUAUAUUUUUAAUGUUGAGAUAGAAGGUAGUUUCGGUC [JR_ExcNG3_Sub090] (Eterna round: R96, puzzle: Exclusion NG 3)”: the “apparent KD of MS2 coat protein” value runs as follows: (input ligand: FMN 200 uM) 161 nM; under setting [1], 93 nM; (input ligand: none) 149 nM.

Consider “GUGAGACAUGAGGAUCACCCAUGUCAGGAUAUGAUACUAUGUACUUCGGUACAUAGUAUCAGAAGGGACAGUGA [Ex1-3: 5] (puzzle: Exclusion 1)”, for which the “apparent KD of MS2 coat protein” value under setting [3] came out at 42.5 nM.

Turning to “GUGAUAUAGUUAGUGGCCUACAUGAGGAUCACCCAUGUGAGGGAAAUGUUGAGGCGAAAGUUGUGUGCUCGUCUGUA [JR_SV3TOV1_Sub039] (puzzle: Sensor v3, turn-off variant 1)”, the “apparent KD of MS2 coat protein” value reads like this: under setting [2], 23.6 nM; under setting [3], 38.9 nM; under setting [4], 26.5 nM.

As for “GUGAUCUAUCAUGGAAUAAACAUGAGGAUCACCCAUGUAGACAAGUUUUUUGCUCGUCUUAUAAUAAGAUAGAUCAC [Antenna 14 - Jieux - Sensor, turn-off variant 1] (Eterna round: R97, puzzle: Sensor, turn-off variant 1)”, the “apparent KD of MS2 coat protein” value is, setting by setting: (input ligand: FMN 200 uM) 15.5 nM; (input ligand: none) 14.2 nM.

The values are drawn from the supplement of paper PMC9170038.
